Source: the domain aggregation screens of Martell et al. (2025)

Assay: soluble fraction after stress (log2 fold change); higher = more stays soluble; pooled small domains, quantitative proteomics
Conditions: stress: 75 degC
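Note: 20 min heating vs room temperature control held 20 min.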

Sequence	soluble fraction (log2)
HMVEKRLFPQISDAGKRLDLFLAGALAISRTMVVKIIKDGGVLVNGKAAKASYRLAGDEELLVSYEEP	-3.48
HMVEMPEVGVKVRIEVESHNGSTNFEGIVLHPASKGHLTLKLINGYNASYLIEEIRNLEIIDSS	-1.64
HMVENATPEEREALNDIAMEAMGMVKDGKPTSAREFVQSQNLDNDQKILLWSLLDAPTRSALKTAEK	0.373
HMVEPIKAPMPGMVLKILVEPGQQIEKGQGVLILEAMKMENVLKSSAAATVKSIKVSEKSAVEKGAILVEL	-0.463
HMVEQVEISILPGEYSDTISQKLLDAGLIDDKAAFSKYINDTNVDNLIQPGTFTVPKGASYEEVAKILT	0.214
HMVERRVRFTVAPGNAGLRLDLFLTAREIGLSRTQVGRAVDEGQIQVNGRPGRAGRKLKTGDVVAIVLPA	-1.13
HMVESLTDRELQILSLAAKGYTNKAIAVQLGISDRTVQNHLANTFQKLNAESRTEAVMRAVSLGLISA	-0.542
HMVETVQVVGAGQDIMPGSRINYSSLHYITVPRSYFHEDMFAKNNLVVGRIARAYVAKGEPLLAASLMPK	-2.29
HMVEVPYSEFLKELDAGNVKDVYVSNGESQIQFTKKDQKQWNLSYKTGPIPGDDLVKRLQNADVENFT	0.109
HMVEVTTDEITRPGAMVSGSVTFSDGVKAIWLIDEYGRPGLEPETPGYQPSESDLSEFEKHLRALLQ	0.362
HMVEVVDAEKLEERLSKVFSAAVLLEIYNENPAHGKEYAYLFTARKNAVEEMIENGQMKRETWEAK	-0.987
HMVFSKEELLFNSDSLLSLYPNDNKLLETILSEKIDHAVKNNDMSMYKEILVIDPKNPLANYHLLM	0.354
HMVFTEEERAEYREKMLDAGFDLLKQYGMTHMSVAKITEAAGIGVSTFYNFFSSKEEYVYEVLQYRRRK	-1.3
HMVGIVQKTFEPTGIAAEELMKTLKSDKSLDFGNVQILATPKSSTSRQVVVVSGRANDVDRVMMVLSNLDS	-0.326
HMVGKIVVPHLEGKPAEMARDILARDGFKSVHEEVLPSAEFGAGRVVRTEPHAGTNVAKTDPVTIFVSVGL	-0.268
HMVGLTDLQRNVLVQIARGKSRQLISRTLKVTPAEISAALKVAQRRYRVASSTEVIVQALYDKTLSFHEIM	-0.707
HMVIIPNILNKYKGLAFRQLEQVGLKIGDTIYEPNIQRDAVLRMQINGRSVQPGDQVMRFSVVDLVIG	-3.2
HMVINKRELNVLSIYSRGSEKRAIILFPTGQTKLVKVGDTLNGGRVAAIGTTEIRYIKGGNNLVLKIPQ	-2.75
HMVINVNEIIRRIKELKTFKTDRQVADFLGVSKATVSNWMARNSIDFPLLINKLDGVDLTWLLTGRGTPE	-2.15
HMVIPATPTARRAKIAGLLADRSVRSQGELLTLLADAGIEVTQATLSRDLEALGAVKVRDGRGLVYAVPG	-0.32
HMVIQRQIPPLVTRMLDGLEQFIQLDMPFDLDTRLGNIEAVRANMDRSDVTSAEAYRQVLELYSIELQ	-0.559
HMVISLREINLIGVYGRPNARRALVRLSNGRYVRVEVGSDLDGGKVTAIGDEALNFVKRGRTYAIQLPA	-1.11
HMVITPESVKEQVLAIISKSPAQGFNYKQISKRLNINDPSERKMVSDILRELSESGTIEEINKGKYRAKV	0.186
HMVKDYIQVTVNKEPVILKGKKDYIFIDIFNYIEFDLTIPKGSLYLLLNGKNAGYHDKLLDGDVIELGW	-2.17
HMVKLDDLTGQDKASAEAAISNLGLKYSEQQEYSDEIEEGKVTRTDPGAGSTSLKAGDTVTVYISRGPE	0.905
HMVKLSATVKELLDFVIAKKTVTSSNVSKHFDISAQNASGRLKKLHATGLVLGQKEVAESGGLEFVYRS	-0.132

Sequence	soluble fraction (log2)
HMVKLSDGIVEHIKSLIMAGRLKPGDKLPPEREFAATLGVSRTALREAVRTLSLMGLLDARQGEGTFVSG	-0.135
HMVKPQANTIYKEYIKYRANLQNKNEFLSFSEYAKQKHNLEQMSEIMVDANLKEEMLETLKEMS	-0.0266
HMVKSDLVGHRFILVEDVTPKLTPKYHYSGINWKLITTDNLVAGTRVEVIQVDVGKFHIKAIK	-1.85
HMVKSIDEIYNEAVKSLANEDYDAAKKLFNYLINNFSDPDKFPLSLFWLAEIEFSSSNFDASKNYYMQ	0.0365
HMVKSSVTEVISMINALPVTVKPEDKADIISARMAYDTLTEDEKALVTNYEILTAAETRFNELIATT	0.275
HMVKTIINGEEKDFDAQDFQTFGDFLKKVIPEGQILKSLKINSKDVPIAFIDELKSATVDENITIEMELA	0.682
HMVLAEPLSERELDILRLLAAGDSNKEIAAVLYITEGTVKNHVTNILGKLDARDRTQAALRARELGL	-1.21
HMVLGDQTFQSASAPKVFFGGDAAYGPKNIITAVAHGHDAAVSIDRFLHGEDVSKRPGPQVNLVS	0.287
HMVLRPDDVEDSLWREWVSHRKAKRAAVTEGVLKTFRQEATKASFTLADAMRKSIDRGWTGFEAEWVARET	-0.299
HMVLSPAQVRRALMVSGLFTEARVARQLGVPMDLKQILRIILRNTPPQSAMARELESAIDEIESRNAMRD	-1.7
HMVLSTRERMSNILATLKGGHFVNFSDLFTPEEGRLGVVVTFLAMLELIKESLLDIVQHEVLGPIHVKARV	0.00479
HMVLTGTIKKYNNERGFGFISTSNFGDVFFHIKDFQKGEQPIPGREVYFEVVKKENKKRAIHVYYSD	-1.95
HMVLVSNYGEVVRKARERKGLDHGSLAMKISEKKSIITSVESGNMKPNEKLIKKLENFLNINLM	-1.69
HMVMIPDLVGETIEDAKDILEGLGFEVEVRSEFPESDWGRPFARVTSLSPSAGQEVAKGTLVIIRSF	-1.05
HMVMLIVMNHTASQADIDKVIEVVSGMGFTAAPIPGGERTAIGVLGNKGYVDDSTIRDLPGVQQAIHVSKP	-1.21
HMVMSVGENIAYFRKKLGLTQEMLSERIGVTAQAVSKWENGVTNPDISLLPRISEALGIGIGDLFD	-1.94
HMVNAVKFAIEKMPYKYSSLLTLKYVMGYSGKEIAEITGLSETNVRQQLLKGRKLLESMLEE	-2.9
HMVNGTPADPYDVLGVESSASPEELRAAWQTLVRQNHPDQLMARGVPLEAVKLAEARLVAINQAWDDLTK	-0.0568
HMVNHVGITVSNLERSIQFYEALTGKKIANQDTIGGKRMAQTQGLADTLIKYANLHLDNLNIDLLEYVE	-0.92
HMVNIAVMTVSDTRTEADDKSGSLLVSKIEGDGHVLADRAIITDDVPRIIAKLKEWIESPQVDVVVT	-0.0813
HMVNINEVEVSRDLAHAKVFVTFVGDRTDEINTQALKVLNAAQGFLRSRIASNNHMRTTPRIHF	-0.567
HMVNIPEIAKKFGKSTSEVFEQIQIGEKHEMEHTNDPKKARKIALDHLSDDMDYYKKLKKLG	0.212
HMVNLKQVELREHHPWVGHKIKELDISRHTLIVMIRRGDNAIVPNGDTLIKSGDIVFVFSKR	-2.76
HMVNPHPVYRSWGLLYVEARDGDSLESIAKEFGFSVKKLAKYNEVPKDYPLEAGDIVYLEKKKK	-1.63
HMVNPIDFYLLFRTELQRLAEHPITVDRLTEVTGLNKLQVLDWLKRAEQDGLVKKLNRPTRYQLN	0.233
HMVPAMGSLTLIKGGVNLRNAPGGLTIAQLDRGLVLSYTKFVQKDGYTWYLVNSPKGTGYVRSDVVQLGS	-2.58

Sequence	soluble fraction (log2)
HMVPDGFDQLTEREYQVAMAVGKGLNNKEIASQLGLGERTVKAHLTTTFEKLHVRDRVQLALIVNRL	-0.683
HMVPDVVGKDYALAQAELEGANLVVAKGSSRYDDTLPAGVVLATDPKVGTVVKPGAKVTVILSK	0.217
HMVPLSMLTEGQIFRGQVLDITSQGIKIQLNPEQILFARLGEQVELNIGQQMAFQVRENKGDQLIIHPMQN	-0.353
HMVPVQLTPRELQVARLAAHGASSPEIAAELRVSRRTVDNQLGRVYAKLGIAGRAELAAALSRLPVSV	-1.07
HMVPVSIYAYNKIKTAILNNELMPGEKLVEASLAETLNMSRTPIREALRQLEQEGFVTYYPQKGSIVSH	-1.25
HMVQAQGARIREARVQRGLSQAQLGEPRYSGSYISHIENGRRSPGTDVLAFIAARLGLEPGALDS	-0.978
HMVQIFIPVVHDDHWFLIVFSREEDTFYVLDSLPSLSRISTINGIISTLKEHLQQASVGPQYSVKVLPVK	0.226
HMVQLAEGERYRRIQEANDFINRQQWPGKAAMGRLKDTEKAQYNLWLDYLDALEAVDTSSAPKINWPVPPE	0.2
HMVQQAVNMAKPGKLFTGPSPTSKALRDLDAGAMLYPTGEKQGPFWKVQDELGNEGWVAMGLLQLA	-0.0352
HMVQVDNELTEFSVQSITRGIDALGEVTIRVTAPDGGVYTGRGADNDIIVSSTKAYLNALNRLLNDK	0.0321
HMVQYVDFVKRMIEELPWWHRRMLELKYLDGLTYEEIADELQVPVGTVKGTLHRAKELFQEILKNN	-3.29
HMVRDPYELLEVPREATPDEIKSAFRKLAARHHPDRNPDDPGAQERFKEINAAYQLLSDPQKRAMFDRFGA	0.159
HMVRKIQAKLVLRLHAQGLSGRAIARSQGMSRRSVSDVLDAARAVGVGWDDVTGKTDGEVYALLFPGRG	-2.66
HMVRKIRARLVLQLRAEGLSGRAIAGSQGMSRKSVTAVLDAADRAGIGWDEIAERSEGEVYALLFPGRG	-1.46
HMVRQKYKSNFITVGDKSLTIHDWAQRLNLSQYALRNRYKEFGKEWVEKAIKTILETGDNTHIYK	-1.46
HMVRSLADQVYERLRRNIVSGDLAPNARIVELDIAAQMGTSQGPVREALQRLEREGLVQRRAHSATFVTD	-0.554
HMVRVSELAIEPRLVVEETATGFVGAVVRYANGLIELEDRHGAVRTFPLGPGYLVDGRPVSLVKPT	-0.577
HMVSEDELLARIALLPYPQAKILLEERLSHDPANAKVRQLYLELAKKSGDHTEVTRHNSLLY	-0.347
HMVSKIEAPLPGIILSVDVKEGDTVKAGDKLMVMEAMKMENAILAETNGVVKSIKVKIQDSVLQGDILAEI	-0.55
HMVSKSDVQRALEKVEPVLRKLGGSTVEKVRVMARQATLVFEMLKSWWKGEIDLPWKTVAAMTVTLLYL	-0.451
HMVSLNKTEFIAVKKASASELRDKINSLGLDVLKDATISADARTNQIIATGPKYALEQIKMLVVGLDVSS	-1.4
HMVSLRQQVYDYLRSQMNQGELRPGSAINLGEMSSRFGISRTPLREALLQLETEGFVTIYPRKGIIVN	-1.63
HMVSLTGEWRPSKDALDILITKGGINPNFIDDAVPEFILYWRDRGDVSNTWDSKFIQHVRRQWQFYTGI	-2.87
HMVSMSFDDYVNDAKEYESEGDKDKAYNSYLEAYKLNKSSEEVLDYLIDNTEDVTLKLNYVYEYLDL	0.00966
